PMC2662417, “Pxmp2 Is a Channel-Forming Protein in Mammalian Peroxisomal Membrane” (PLoS ONE, 2009)

B1: native Pxmp2 purified from mouse liver peroxisomes (natural protein, mouse (endogenous in mouse liver), UniProt P42925 1-194, looked up)
chain: MAPAASRLRVESELGSLPKRALAQYLLLLKLYPVLTKAVSSGILSALGNLLAQTIEKKQRKDSRLLEVSGLLRYLVYGLFVTGPLSHYLYLFMEYSVPPEVPWASVKRLLLDRLFFAPTFLLLFFFVMNLLEGKNVSVFVAKMRSGFWPALQMNWRMWTPLQFININYVPLQFRVLFANMAALFWYAYLASLGK
notes: Pxmp2, peroxisomal membrane protein 2 (22 kDa), mouse; native protein isolated from liver peroxisomes; also called PMP22; purified Pxmp2; source: purified from mouse liver peroxisomes (conventional chromatography: ion-exchange and size-exclusion steps, in detergent)
B2: His-tagged Pxmp2 protein (natural protein, mouse, UniProt P42925 1-194, looked up)
chain: B1 chain
notes: Pxmp2, mouse, recombinant with a His tag (about 27 kDa); also called mouse recombinant Pxmp2

Experiments:
[1] = biological target: the molecule itself; assay: SEC + cross-linking; purified native Pxmp2 in detergent; Superdex 200 size-exclusion chromatography; protein eluted from the column treated with Sulfo-EGS, immunoblot with anti-Pxmp2; details in Text S1
[2] = biological target: the molecule itself; assay: cross-linking; Genapol X-080-solubilised proteins (about 50 ug) of the PPF of Sf9 cells expressing His-tagged Pxmp2; DSS at 0.1, 0.2, 0.5 and 1.0 mM, 30 min at room temperature; SDS-PAGE, immunoblot with anti-His-tag antibodies

Row | Protein | stoichiometry N [1] | stoichiometry N [2]
1 | B1 | 3 | –
2 | B2 | – | 3
